Results published in paper PMC6779754, “Brain-specific homeobox Bsx specifies identity of pineal gland between serially homologous photoreceptive organs in zebrafish”.
Positions count from the first letter of the chain named.

B1: D3 competitor (dsDNA)
DNA 1: GAATTCGATAGATTTAATATTTCAGTCATCAAGCTT
DNA 2: AAGCTTGATGACTGAAATATTAAATCTATCGAATTC
B2: D2 competitor (dsDNA)
DNA 1: GAATTCGATTGTTTTTAATAAAGATTTATCAAGCTT
DNA 2: AAGCTTGATAAATCTTTATTAAAAACAATCGAATTC
B3: D4 competitor (dsDNA)
DNA 1: GAATTCGATTCTGATAATCTGTGTGTGATCAAGCTT
DNA 2: AAGCTTGATCACACACAGATTATCAGAATCGAATTC
B4: BSXRE probe (dsDNA)
DNA 1: GAATTCGATGGCGCTAATCGGTGGGGGATCAAGCTT
DNA 2: AAGCTTCATCCCCCACCGATTAGCGCCATCGAATTC
B5: BSXRE-mut probe (dsDNA)
DNA 1: B4 DNA 1 with A17C, T18G, C19A, G20T
DNA 2: B4 DNA 2 with C17A, G18T, A19C, T20G
B6: P3 competitor (dsDNA)
DNA 1: GAATTCGATCTCCTGTAATCTGCCTAAATCAAGCTT
DNA 2: AAGCTTGATTTAGGCAGATTACAGGAGATCGAATTC

Columns and labels:
GST-Bsx [1] = target: T1, GST-Bsx (zebrafish, UniProt Q6R3Q6 1-227); assay: competition; competitor vs BSXRE probe (EMSA); EMSA: DIG Gel Shift Kit (Roche) per manufacturer, 2.0 pmol GST-Bsx with 32 fmol DIG-oligonucleotide or 8 fmol DIG-147bp probe; buffer, pH and temperature not stated; settings: protein: recombinant; tags: N-terminal GST (pGEX-5X-1); annealed synthetic oligonucleotides
GST-Bsx [2] = target: T1, GST-Bsx; assay: EMSA; EMSA: DIG Gel Shift Kit (Roche) per manufacturer, 2.0 pmol GST-Bsx with 32 fmol DIG-oligonucleotide or 8 fmol DIG-147bp probe; buffer, pH and temperature not stated; settings: protein: recombinant, tags: N-terminal GST (pGEX-5X-1), label: DIG, annealed synthetic oligonucleotides

T1 sequence (Q6R3Q6 whole entry): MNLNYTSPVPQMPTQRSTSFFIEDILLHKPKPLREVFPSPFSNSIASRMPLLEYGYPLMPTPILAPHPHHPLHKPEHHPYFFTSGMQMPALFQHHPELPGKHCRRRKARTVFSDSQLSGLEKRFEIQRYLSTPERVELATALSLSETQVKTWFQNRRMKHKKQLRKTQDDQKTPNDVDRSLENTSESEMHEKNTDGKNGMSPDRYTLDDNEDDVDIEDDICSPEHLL

Binder	binding result (GST-Bsx [1])	also measured
B1	binds	
B2	binds	
B3	binds	
B4		binding result (GST-Bsx [2]; 36-mer): binds
B5		binding result (GST-Bsx [2]): no binding
B6	binds	
